Laboratory results reported in the supplement of paper PMC5998384.

Columns and labels:
HeLa Kyoto [1] = assay: melting temperature (median over replicates), in situ; higher = more thermally stable
HeLa Kyoto [2] = assay: solubility in G1/S (NP-40 vs SDS abundance) (log2 ratio); higher = more soluble; settings: cell cycle stage: G1/S
HeLa Kyoto [3] = assay: thermal stability score vs G1/S (z-score of summed log2 fold changes over temperatures); higher = more thermally stable than in G1/S
HeLa Kyoto [4] = assay: solubility change mitosis vs G1/S (difference of NP-40 vs SDS log2 ratios) (log2 ratio difference); higher = more soluble in mitosis
[5] = cell cycle stage: early G1 (4.5 h after nocodazole release)
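For melting temperature (median over replicates), in situ in this document: HeLa Kyoto cells synchronized by double thymidine or nocodazole block, proteins quantified by TMT10plex mass spectrometry, three independent biological replicates.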
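For solubility change mitosis vs G1/S (difference of NP-40 vs SDS log2 ratios) in this document: synchronized HeLa Kyoto cells (double thymidine block for G1/S, nocodazole release for mitosis), protein amounts in NP-40 versus SDS lysates quantified by mass spectrometry, three biological replicates.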
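For solubility in G1/S (NP-40 vs SDS abundance) in this document: HeLa Kyoto cells arrested at G1/S by double thymidine block, proteins quantified by TMT10plex mass spectrometry in mild NP-40 versus SDS extracts, three biological replicates.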
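For thermal stability score vs G1/S (z-score of summed log2 fold changes over temperatures) in this document: synchronized HeLa Kyoto cells, proteins quantified by TMT10plex mass spectrometry, three biological replicates, mitosis taken 0.5 h after nocodazole release, G1/S directly after double thymidine block.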

Chain of WNK1 (chain, as listed by the source): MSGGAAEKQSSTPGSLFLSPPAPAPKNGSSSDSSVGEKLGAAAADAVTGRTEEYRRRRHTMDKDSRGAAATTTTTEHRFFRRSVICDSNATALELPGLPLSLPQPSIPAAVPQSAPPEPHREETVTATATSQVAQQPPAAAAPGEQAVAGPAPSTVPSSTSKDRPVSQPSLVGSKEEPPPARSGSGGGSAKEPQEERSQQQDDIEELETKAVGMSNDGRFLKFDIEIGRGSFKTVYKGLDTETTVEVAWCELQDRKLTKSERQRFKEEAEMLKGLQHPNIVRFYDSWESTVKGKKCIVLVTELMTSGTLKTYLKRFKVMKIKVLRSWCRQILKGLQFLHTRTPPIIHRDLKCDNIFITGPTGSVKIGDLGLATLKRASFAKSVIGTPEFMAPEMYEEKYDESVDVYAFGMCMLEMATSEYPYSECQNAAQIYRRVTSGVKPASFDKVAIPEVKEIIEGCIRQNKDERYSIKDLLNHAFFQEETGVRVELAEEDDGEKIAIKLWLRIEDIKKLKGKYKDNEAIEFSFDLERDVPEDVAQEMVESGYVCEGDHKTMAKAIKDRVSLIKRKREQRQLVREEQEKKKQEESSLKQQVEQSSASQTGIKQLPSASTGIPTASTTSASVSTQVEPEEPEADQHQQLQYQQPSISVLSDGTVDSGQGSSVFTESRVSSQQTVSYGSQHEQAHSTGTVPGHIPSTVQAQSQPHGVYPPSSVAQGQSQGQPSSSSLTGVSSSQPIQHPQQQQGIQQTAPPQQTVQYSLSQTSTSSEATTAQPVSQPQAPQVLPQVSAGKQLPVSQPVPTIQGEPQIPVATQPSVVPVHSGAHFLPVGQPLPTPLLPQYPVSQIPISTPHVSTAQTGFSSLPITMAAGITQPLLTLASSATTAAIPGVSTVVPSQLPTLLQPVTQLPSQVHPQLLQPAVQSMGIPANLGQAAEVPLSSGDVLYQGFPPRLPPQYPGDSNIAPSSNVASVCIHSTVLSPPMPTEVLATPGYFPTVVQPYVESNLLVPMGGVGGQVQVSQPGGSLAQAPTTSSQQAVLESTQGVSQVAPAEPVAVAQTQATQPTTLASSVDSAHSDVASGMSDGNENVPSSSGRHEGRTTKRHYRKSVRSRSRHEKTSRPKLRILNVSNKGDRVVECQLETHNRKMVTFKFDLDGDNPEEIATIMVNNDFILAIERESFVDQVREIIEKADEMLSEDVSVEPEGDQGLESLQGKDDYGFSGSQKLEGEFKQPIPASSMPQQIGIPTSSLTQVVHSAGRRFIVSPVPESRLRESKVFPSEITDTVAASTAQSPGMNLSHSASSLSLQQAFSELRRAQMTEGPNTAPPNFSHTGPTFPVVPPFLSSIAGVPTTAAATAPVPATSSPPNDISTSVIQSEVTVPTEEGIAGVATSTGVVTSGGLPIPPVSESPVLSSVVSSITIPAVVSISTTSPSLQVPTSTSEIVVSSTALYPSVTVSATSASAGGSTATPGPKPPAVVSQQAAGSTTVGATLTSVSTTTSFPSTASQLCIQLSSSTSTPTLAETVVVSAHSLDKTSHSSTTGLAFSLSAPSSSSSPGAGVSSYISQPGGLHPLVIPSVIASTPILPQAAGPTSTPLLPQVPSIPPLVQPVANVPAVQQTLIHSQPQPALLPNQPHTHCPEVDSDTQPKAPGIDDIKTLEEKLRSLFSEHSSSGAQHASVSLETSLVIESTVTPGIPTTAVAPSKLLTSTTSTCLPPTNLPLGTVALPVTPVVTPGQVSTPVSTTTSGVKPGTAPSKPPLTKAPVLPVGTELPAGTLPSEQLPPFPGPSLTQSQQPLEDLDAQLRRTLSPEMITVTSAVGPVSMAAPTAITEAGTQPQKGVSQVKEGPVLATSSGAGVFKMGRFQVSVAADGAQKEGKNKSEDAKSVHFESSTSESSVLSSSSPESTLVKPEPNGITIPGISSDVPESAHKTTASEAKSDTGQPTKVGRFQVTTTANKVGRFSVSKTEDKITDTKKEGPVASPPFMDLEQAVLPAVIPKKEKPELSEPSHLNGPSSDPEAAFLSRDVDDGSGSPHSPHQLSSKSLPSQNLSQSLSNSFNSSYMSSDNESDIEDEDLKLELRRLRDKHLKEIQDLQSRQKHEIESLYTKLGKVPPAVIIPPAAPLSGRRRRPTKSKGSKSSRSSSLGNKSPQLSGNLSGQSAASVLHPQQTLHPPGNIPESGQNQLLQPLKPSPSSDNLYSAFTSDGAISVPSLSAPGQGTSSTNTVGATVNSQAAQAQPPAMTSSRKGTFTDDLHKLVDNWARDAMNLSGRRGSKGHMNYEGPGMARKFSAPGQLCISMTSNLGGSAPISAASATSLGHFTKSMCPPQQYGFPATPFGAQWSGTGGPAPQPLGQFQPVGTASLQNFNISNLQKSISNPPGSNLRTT
Chain of STK38 (chain, as listed by the source): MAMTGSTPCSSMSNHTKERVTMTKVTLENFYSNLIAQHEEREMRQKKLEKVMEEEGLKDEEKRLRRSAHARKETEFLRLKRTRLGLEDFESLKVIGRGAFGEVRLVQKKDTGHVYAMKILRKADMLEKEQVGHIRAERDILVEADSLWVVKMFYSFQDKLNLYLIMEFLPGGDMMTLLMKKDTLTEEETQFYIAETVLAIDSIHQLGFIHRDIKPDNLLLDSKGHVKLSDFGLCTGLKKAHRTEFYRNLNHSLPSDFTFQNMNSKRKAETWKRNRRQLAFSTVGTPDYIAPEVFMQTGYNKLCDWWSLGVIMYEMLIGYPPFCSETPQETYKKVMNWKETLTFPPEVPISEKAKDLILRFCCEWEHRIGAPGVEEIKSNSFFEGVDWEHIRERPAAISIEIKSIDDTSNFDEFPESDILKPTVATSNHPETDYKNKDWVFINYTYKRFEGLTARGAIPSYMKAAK

Substance | melting temperature (HeLa Kyoto [1]; cell cycle stage: G1/S) [°C] | melting temperature (HeLa Kyoto [1]; cell cycle stage: mitosis) [°C] | solubility in G1/S (log2) (HeLa Kyoto [2]) | thermal stability score (HeLa Kyoto [3]; [5]) | thermal stability score (HeLa Kyoto [3]; cell cycle stage: mitosis) | solubility change mitosis (log2) (HeLa Kyoto [4])
MTDSKYFTTTKKGEIFELKAELNSDKKEKKKEAVKKVIASMTVGKDVSALFPDVVNCMQTDNLELKKLVYLYLMNYAKSQPDMAIMAVNTFVKDCEDPNPLIRALAVRTMGCIRVDKITEYLCEPLRKCLKDEDPYVRKTAAVCVAKLHDINAQLVEDQGFLDTLKDLISDSNPMVVANAVAALSEIAESHPSSNLLDLNPQSINKLLTALNECTEWGQIFILDCLANYMPKDDREAQSICERVTPRLSHANSAVVLSAVKVLMKFMEMLSKDLDYYGTLLKKLAPPLVTLLSAEPELQYVALRNINLIVQKRPEILKHEMKVFFVKYNDPIYVKLEKLDIMIRLASQANIAQVLAELKEYATEVDVDFVRKAVRAIGRCAIKVEQSAERCVSTLLDLIQTKVNYVVQEAIVVIKDIFRKYPNKYESVIATLCENLDSLDEPEARAAMIWIVGEYAERIDNADELLESFLEGFHDESTQVQLQLLTAIVKLFLKKPTETQELVQQVLSLATQDSDNPDLRDRGYIYWRLLSTDPVAAKEVVLAEKPLISEETDLIEPTLLDELICYIGTLASVYHKPPSAFVEGGRGVVHKSLPPRTASSESAESPETAPTGAPPGEQPDVIPAQGDLLGDLLNLDLGPPVSGPPLATSSVQMGAVDLLGGGLDSLMGDEPEGIGGTNFVAPPTAAVPANLGAPIGSGLSDLFDLTSGVGTLSGSYVAPKAVWLPAMKAKGLEISGTFTRQVGSISMDLQLTNKALQVMTDFAIQFNRNSFGLAPAAPLQVHAPLSPNQTVEISLPLSTVGSVMKMEPLNNLQVAVKNNIDVFYFSTLYPLHILFVEDGKMDRQMFLATWKDIPNENEAQFQIRDCPLNAEAASSKLQSSNIFTVAKRNVEGQDMLYQSLKLTNGIWVLAELRIQPGNPSCTDLELSLKCRAPEVSQHVYQAYETILKN [AP1B1] | 51.7 | 51.1 | 0.297 | -0.616 | 0.595 | -0.225
MALLCLDGVFLSSAENDFVHRIQEELDRFLLQKQLSKVLLFPPLSSRLRYLIHRTAENFDLLSSFSVGEGWKRRTVICHQDIRVPSSDGLSGPCRAPASCPSRYHGPRPISNQGAAAVPRGARAGRWYRGRKPDQPLYVPRVLRRQEEWGLTSTSVLKREAPAGRDPEEPGDVGAGDPNSDQGLPVLMTQGTEDLKGPGQRCENEPLLDPVGPEPLGPESQSGKGDMVEMATRFGSTLQLDLEKGKESLLEKRLVAEEEEDEEEVEEDGPSSCSEDDYSELLQEITDNLTKKEIQIEKIHLDTSSFVEELPGEKDLAHVVEIYDFEPALKTEDLLATFSEFQEKGFRIQWVDDTHALGIFPCLASAAEALTREFSVLKIRPLTQGTKQSKLKALQRPKLLRLVKERPQTNATVARRLVARALGLQHKKKERPAVRGPLPP [R3HCC1] |  | 51.1 | -0.047 | -0.563 | -0.284 | -0.0167
WNK1 | 51.9 | 52.2 | 0.0681 | 1.74 | 3.55 | -0.164
MATALALRSLYRARPSLRCPPVELPWAPRRGHRLSPADDELYQRTRISLLQREAAQAMYIDSYNSRGFMINGNRVLGPCALLPHSVVQWNVGSHQDITEDSFSLFWLLEPRIEIVVVGTGDRTERLQSQVLQAMRQRGIAVEVQDTPNACATFNFLCHEGRVTGAALIPPPGGTSLTSLGQAAQ [NDUFAF3] | 53.4 | 53.5 | 0.117 | -0.2 | -2.08 | -0.0203
MSEAPRFFVGPEDTEINPGNYRHFFHHADEDDEEEDDSPPERQIVVGICSMAKKSKSKPMKEILERISLFKYITVVVFEEEVILNEPVENWPLCDCLISFHSKGFPLDKAVAYAKLRNPFVINDLNMQYLIQDRREVYSILQAEGILLPRYAILNRDPNNPKECNLIEGEDHVEVNGEVFQKPFVEKPVSAEDHNVYIYYPTSAGGGSQRLFRKIGSRSSVYSPESNVRKTGSYIYEEFMPTDGTDVKVYTVGPDYAHAEARKSPALDGKVERDSEGKEVRYPVILNAREKLIAWKVCLAFKQTVCGFDLLRANGQSYVCDVNGFSFVKNSMKYYDDCAKILGNIVMRELAPQFHIPWSIPLEAEDIPIVPTTSGTMMELRCVIAVIRHGDRTPKQKMKMEVRHQKFFDLFEKCDGYKSGKLKLKKPKQLQEVLDIARQLLMELGQNNDSEIEENKPKLEQLKTVLEMYGHFSGINRKVQLTYLPHGCPKTSSEEEDSRREEPSLLLVLKWGGELTPAGRVQAEELGRAFRCMYPGGQGDYAGFPGCGLLRLHSTYRHDLKIYASDEGRVQMTAAAFAKGLLALEGELTPILVQMVKSANMNGLLDSDSDSLSSCQQRVKARLHEILQKDRDFTAEDYEKLTPSGSISLIKSMHLIKNPVKTCDKVYSLIQSLTSQIRHRMEDPKSSDIQLYHSETLELMLRRWSKLEKDFKTKNGRYDISKIPDIYDCIKYDVQHNGSLKLENTMELYRLSKALADIVIPQEYGITKAEKLEIAKGYCTPLVRKIRSDLQRTQDDDTVNKLHPVYSRGVLSPERHVRTRLYFTSESHVHSLLSILRYGALCNESKDEQWKRAMDYLNVVNELNYMTQIVIMLYEDPNKDLSSEERFHVELHFSPGAKGCEEDKNLPSGYGYRPASRENEGRRPFKIDNDDEPHTSKRDEVDRAVILFKPMVSEPIHIHRKSPLPRSRKTATNDEESPLSVSSPEGTGTWLHYTSGVGTGRRRRRSGEQITSSPVSPKSLAFTSSIFGSWQQVVSENANYLRTPRTLVEQKQNPTVGSHCAGLFSTSVLGGSSSAPNLQDYARTHRKKLTSSGCIDDATRGSAVKRFSISFARHPTNGFELYSMVPSICPLETLHNALSLKQVDEFLASIASPSSDVPRKTAEISSTALRSSPIMRKKVSLNTYTPAKILPTPPATLKSTKASSKPATSGPSSAVVPNTSSRKKNITSKTETHEHKKNTGKKK [PPIP5K2] | 52.5 | 52.6 | 0.0594 | 0.0139 | 0.108 | -0.068
MSSEDREAQEDELLALASIYDGDEFRKAESVQGGETRIYLDLPQNFKIFVSGNSNECLQNSGFEYTICFLPPLVLNFELPPDYPSSSPPSFTLSGKWLSPTQLSALCKHLDNLWEEHRGSVVLFAWMQFLKEETLAYLNIVSPFELKIGSQKKVQRRTAQASPNTELDFGGAAGSDVDQEEIVDERAVQDVESLSNLIQEILDFDQAQQIKCFNSKLFLCSICFCEKLGSECMYFLECRHVYCKACLKDYFEIQIRDGQVQCLNCPEPKCPSVATPGQVKELVEAELFARYDRLLLQSSLDLMADVVYCPRPCCQLPVMQEPGCTMGICSSCNFAFCTLCRLTYHGVSPCKVTAEKLMDLRNEYLQADEANKRLLDQRYGKRVIQKALEEMESKEWLEKNSKSCPCCGTPIEKLDGCNKMTCTGCMQYFCWICMGSLSRANPYKHFNDPGSPCFNRLFYAVDVDDDIWEDEVED [RNF14] | 49.6 | 49.1 | 0.119 | 0.508 | 1.14 | -0.286
MELALRRSPVPRWLLLLPLLLGLNAGAVIDWPTEEGKEVWDYVTVRKDAYMFWWLYYATNSCKNFSELPLVMWLQGGPGGSSTGFGNFEEIGPLDSDLKPRKTTWLQAASLLFVDNPVGTGFSYVNGSGAYAKDLAMVASDMMVLLKTFFSCHKEFQTVPFYIFSESYGGKMAAGIGLELYKAIQRGTIKCNFAGVALGDSWISPVDSVLSWGPYLYSMSLLEDKGLAEVSKVAEQVLNAVNKGLYREATELWGKAEMIIEQNTDGVNFYNILTKSTPTSTMESSLEFTQSHLVCLCQRHVRHLQRDALSQLMNGPIRKKLKIIPEDQSWGGQATNVFVNMEEDFMKPVISIVDELLEAGINVTVYNGQLDLIVDTMGQEAWVRKLKWPELPKFSQLKWKALYSDPKSLETSAFVKSYKNLAFYWILKAGHMVPSDQGDMALKMMRLVTQQE [SCPEP1] | 56.9 | 55.6 | 0.402 | -2.33 | -0.14 | 0.202
STK38 | 48.3 | 49.1 | -0.0452 | 0.464 | 1.32 | -0.159
RSBN1L | 54.7 | 53.4 | -0.468 | -0.891 | -3.56 | 0.0823
